Columns and labels:
Mouse HER3 ECD = biological target: T1, Mouse HER3 ECD (mouse, UniProt Q61526 20-641); test: ELISA on mouse HER3 ECD
T1 construct: extracellular domain; also called mouse HER3 ECD domains

[1] = biological target: T2, human HER3/ErbB3 extracellular domain (human, UniProt P21860 20-643); test: ELISA on human HER3 ECD
T2 construct: extracellular domain; the range 1-643 of M34309 is printed only for the immunogen; also called Human HER3 ECD; recombinant human HER3

[2] = biological target: T2, human HER3/ErbB3 extracellular domain; test: SPR, Biacore T-100, HER3 ECD
[3] = biological target: T3, human HER3 receptor on cells (human, UniProt P21860 20-1342); test: cell-based or functional assay
T3 sequence (P21860 20-1342): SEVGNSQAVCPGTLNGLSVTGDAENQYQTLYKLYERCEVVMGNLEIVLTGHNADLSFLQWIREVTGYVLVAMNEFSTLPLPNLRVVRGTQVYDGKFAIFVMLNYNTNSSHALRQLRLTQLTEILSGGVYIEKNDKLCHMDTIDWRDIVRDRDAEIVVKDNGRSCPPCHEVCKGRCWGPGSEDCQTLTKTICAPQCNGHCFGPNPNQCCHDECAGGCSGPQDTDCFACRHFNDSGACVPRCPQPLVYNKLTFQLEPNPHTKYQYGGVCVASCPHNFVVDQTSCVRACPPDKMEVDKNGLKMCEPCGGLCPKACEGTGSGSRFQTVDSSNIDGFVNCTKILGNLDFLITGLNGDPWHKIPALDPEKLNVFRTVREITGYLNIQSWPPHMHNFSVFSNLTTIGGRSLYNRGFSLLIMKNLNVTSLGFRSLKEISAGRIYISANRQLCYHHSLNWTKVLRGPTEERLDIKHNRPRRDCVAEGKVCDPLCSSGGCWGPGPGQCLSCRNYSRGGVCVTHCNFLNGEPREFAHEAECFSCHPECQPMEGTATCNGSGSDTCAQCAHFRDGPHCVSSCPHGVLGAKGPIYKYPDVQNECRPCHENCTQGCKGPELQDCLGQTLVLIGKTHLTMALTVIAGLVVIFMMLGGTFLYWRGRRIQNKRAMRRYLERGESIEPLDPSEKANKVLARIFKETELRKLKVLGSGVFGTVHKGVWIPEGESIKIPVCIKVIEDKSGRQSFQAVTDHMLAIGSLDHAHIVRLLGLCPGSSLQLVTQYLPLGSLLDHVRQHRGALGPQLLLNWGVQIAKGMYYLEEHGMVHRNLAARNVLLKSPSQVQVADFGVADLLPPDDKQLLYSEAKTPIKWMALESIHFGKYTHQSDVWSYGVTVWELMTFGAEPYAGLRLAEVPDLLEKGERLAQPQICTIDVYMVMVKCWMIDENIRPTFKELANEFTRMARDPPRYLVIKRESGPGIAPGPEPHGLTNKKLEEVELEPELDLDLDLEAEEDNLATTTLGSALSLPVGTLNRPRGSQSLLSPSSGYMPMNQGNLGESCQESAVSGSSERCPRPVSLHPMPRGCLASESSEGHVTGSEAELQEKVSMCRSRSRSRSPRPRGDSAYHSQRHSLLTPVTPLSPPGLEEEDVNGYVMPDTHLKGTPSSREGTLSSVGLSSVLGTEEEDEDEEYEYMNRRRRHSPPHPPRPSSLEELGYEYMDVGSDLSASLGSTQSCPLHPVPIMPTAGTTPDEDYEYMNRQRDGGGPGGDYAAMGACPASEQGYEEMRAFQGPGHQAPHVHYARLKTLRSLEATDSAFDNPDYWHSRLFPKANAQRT

[4] = biological target: T3, human HER3 receptor on cells; test: cell-based or functional assay; remark: listed apart in the source
Her3/His10 receptor = biological target: T4, Her3/His10 receptor (UniProt P21860 20-643, limits assumed); test: AlphaScreen, blocking of biotinylated NRG-1beta binding to Her3/His10 (column head prints EC50, title and text IC50)
T4 construct: extracellular domain; also called HER3 ECD tagged with 10 histidine (His); not shown: tag of 10 histidines
T4 sequence (P21860 20-643 limits assumed): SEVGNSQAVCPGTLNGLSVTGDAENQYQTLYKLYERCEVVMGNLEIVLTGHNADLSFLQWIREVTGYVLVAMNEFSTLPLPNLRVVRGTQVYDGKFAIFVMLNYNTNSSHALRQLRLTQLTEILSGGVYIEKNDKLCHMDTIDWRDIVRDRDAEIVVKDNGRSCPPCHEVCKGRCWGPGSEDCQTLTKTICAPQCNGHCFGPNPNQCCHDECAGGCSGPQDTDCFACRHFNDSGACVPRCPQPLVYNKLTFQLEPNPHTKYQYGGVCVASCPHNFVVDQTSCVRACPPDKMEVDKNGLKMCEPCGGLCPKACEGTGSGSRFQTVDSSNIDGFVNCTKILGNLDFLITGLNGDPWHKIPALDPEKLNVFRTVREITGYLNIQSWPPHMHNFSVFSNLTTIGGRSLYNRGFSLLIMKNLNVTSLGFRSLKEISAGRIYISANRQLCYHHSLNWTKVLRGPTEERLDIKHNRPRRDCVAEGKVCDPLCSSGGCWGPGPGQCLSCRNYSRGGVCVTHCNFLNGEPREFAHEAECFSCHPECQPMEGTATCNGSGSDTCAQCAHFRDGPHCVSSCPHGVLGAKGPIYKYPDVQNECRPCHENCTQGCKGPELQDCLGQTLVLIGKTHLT
Protocol: HER3 ligand neuregulin (NRG1) can bind on HER3 extracellular domain and activates HER3 phosphorylation and down-stream signaling. Blocking ligand binding on HER3 by the selected rabbit HER3 monoclonal antibodies was determined using alpha screen format assay. NRG1 (R&D Systems) was biotinylated using a biotinylation kit (Fisher Scientific) and HER3 ECD was tagged with 10 histidine (His). Purified anti-HER3 Mabs were serially diluted two-fold into an assay buffer made from 25 mM Hepes, 100 mM NaCl, 0.5% BSA and 0.05% Tween20 in an opaque/white, half-well area plate (Costar). Rabbit IgG1 was used as a negative control. Biotinylated NRG-lbeta ligand and Her3/His₁₀ receptor were added sequentially at 10 nM concentration to the assay plate containing serially diluted antibodies. The mixture of receptor, ligand and the antibodies was incubated at room temperature with gentle shaking for 90 minutes. AlphaScreen Streptavidin Donor beads and His-Nickel Acceptor beads were added into the assay at a final concentration of 20 μg/ml each. The assay plates were covered with foil and incubated at room temperature with gentle shaking for 1 hour. The plates were read in EnVision plate reader.

[5] = biological target: T2, human HER3/ErbB3 extracellular domain; test: SPR, Biacore T-100; antibody captured by anti-rabbit IgG, recombinant human HER3 as analyte
Protocol: All experiments were performed at 25° C. at a flow rate of 45 μl/min. To prepare a BIAcore assay, an anti-rabbit IgG antibody (50 μg/ml each in acetate buffer, pH 5.0) was immobilized onto a carboxymethyl dextran sensorchip (CM5) using amine coupling procedures as described by the manufacturer. Purified rabbit Mabs to be tested were diluted at a concentration of 5 μg/ml in 0.5% P20, HBS-EP buffer and injected on FC2 to reach 500 to 1000 RU. FC1 was used as the reference cell. Specific signals correspond to the difference of signals obtained on FC2 versus FC1. The analyte (recombinant human HER3, apparent molecular weight 97 kDa on SDS-PAGE gel) was injected during 90 sec at series of concentration dilutions (100, 50, 25, 12.5, 6.25, and 3.13, 1.56 nM) in 0.5% P20, HBS-EP buffer. These concentrations were prepared from stock solution in 0.5% P20, HBS-EP. The dissociation phase of the analyte was monitored over a 30 minute period. Running buffer was also injected under the same conditions as a double reference. After each running cycle, both flow cells were regenerated by injecting 20 to 45 μl of glycine-HCl buffer pH 1.5. Binding KD on HER3 was calculated by koff/kon kinetic rate for each HER3 monoclonal antibody (Table 2).

[6] = biological target: T3, human HER3 receptor on cells; test: cell-based or functional assay; remark: listed apart in the source
[7] = biological target: T3, human HER3 receptor on cells; test: cell-based or functional assay; remark: listed apart in the source

T1 sequence (Q61526 20-641): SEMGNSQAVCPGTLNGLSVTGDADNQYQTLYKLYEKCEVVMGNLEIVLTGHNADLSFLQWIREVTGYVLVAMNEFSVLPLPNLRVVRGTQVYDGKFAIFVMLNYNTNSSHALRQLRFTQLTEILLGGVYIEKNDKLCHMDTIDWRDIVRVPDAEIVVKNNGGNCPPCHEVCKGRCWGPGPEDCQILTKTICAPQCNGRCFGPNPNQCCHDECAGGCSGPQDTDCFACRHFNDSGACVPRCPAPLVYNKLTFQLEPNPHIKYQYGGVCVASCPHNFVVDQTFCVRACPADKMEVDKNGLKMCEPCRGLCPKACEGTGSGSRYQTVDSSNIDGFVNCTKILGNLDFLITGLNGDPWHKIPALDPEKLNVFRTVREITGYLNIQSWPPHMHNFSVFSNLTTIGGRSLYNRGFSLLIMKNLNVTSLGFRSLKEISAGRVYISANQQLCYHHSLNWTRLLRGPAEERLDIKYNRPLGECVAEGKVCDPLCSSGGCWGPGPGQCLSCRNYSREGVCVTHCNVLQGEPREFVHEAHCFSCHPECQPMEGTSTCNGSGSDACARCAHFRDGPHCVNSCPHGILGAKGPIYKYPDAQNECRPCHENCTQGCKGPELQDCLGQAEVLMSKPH
T2 sequence (P21860 20-643): as the sequence (P21860 20-643 limits assumed) above

| Binder | EC50 (Mouse HER3 ECD) | EC50 [1] | IC50 (Her3/His10 receptor) | Kd [5] | % Receptor Internalization [6] | pAKT inhibition, EC50 (nM) [7] | pERK ½ inhibition, EC50 (nM) [7] | pHER3 inhibition, EC50 (nM) [7] | further results |
| --- | --- | --- | --- | --- | --- | --- | --- | --- | --- |
| HER3-hMab-A9 (antibody, V domains shown) VH: QVQLVESGGGLVQPGGSLRLSCSASGFSFSASYYIYWVRQAPGKGLEYIAYITGDDDKRTYYANWAKGRFTISRDNSKNTVYLQMNSLRAEDTAVYYCTRNLPDELWGPGTLVTVSS VL: DIQMTQTPSTLSASVGDRVTITCQSSESVYSYKNLAWYQQKPGKPPKLLIWQASRLSSGVPSRFSGSGSGTEFTLTISSLQPDDFATYYCQGTYYSSAWDFVFGGGTKVEIK | 4.3 ng/mL | 3.1 ng/mL | – | – | – | – | – | – | – |
| HER3-hMab-A12 (antibody, V domains shown) VH: QVQLVESGGGLVQPGGSLRLSCSASGFSFSASYYIYWVRQAPGKGLEYIAYITGDDDKRTYYANWAKGRFTISRDTSKNTVYLQMNSLRAEDTAVYYCTRNLPDELWGPGTLVTVSS VL: QAQMTQTPSTLSASVGDRVTITCQSSESVYSYKNLAWYQQKPGKPPKLLIWQASRLSSGVPSRFSGSGSGTEFTLTISSLQPDDFATYYCQGTYYSSAWDFVFGGGTKVEIK | 6.7 ng/mL | 2.4 ng/mL | – | – | – | – | – | – | – |
| HER3-hMab-A10 (antibody, V domains shown) VH: QVQLVESGGGLVQPGGSLRLSCSASGFSFSASYYIYWVRQAPGKGLEYIAYITGDDDKRTYYANWAKGRFTISRDTSKNTVYLQMNSLRAEDTAVYYCTRNLPDELWGPGTLVTVSS VL: DIQMTQTPSTLSASVGDRVTITCQSSESVYSYKNLAWYQQKPGKPPKLLIWQASRLSSGVPSRFSGSGSGTEFTLTISSLQPDDFATYYCQGTYYSSAWDFVFGGGTKVEIK | 5.4 ng/mL | 2.6 ng/mL | – | – | – | – | – | – | Kd [2]: 1.2 nM; koff [2]: 0.000169 s⁻¹; kon [2]: 141000 M⁻¹ s⁻¹; Inhibition of MCF-7 cancer cell proliferation (IC50, µg/ml) [3]: 0.181 µg/mL; pHER3 inhibition (IC50, µg/ml) [4]: 0.0173 µg/ml |
| HER3-hMab-A11 (antibody, V domains shown) VH: QVQLVESGGGLVQPGGSLRLSCSASGFSFSASYYIYWVRQAPGKGLEYIAYITGDDDKRTYYANWAKGRFTISRDNSKNTVYLQMNSLRAEDTAVYYCTRNLPDELWGPGTLVTVSS VL: QAQMTQTPSTLSASVGDRVTITCQSSESVYSYKNLAWYQQKPGKPPKLLIWQASRLSSGVPSRFSGSGSGTEFTLTISSLQPDDFATYYCQGTYYSSAWDFVFGGGTKVEIK | 7.9 ng/mL | 2.6 ng/mL | – | – | – | – | – | – | – |
| Rab1210 (antibody, V domains shown, also called Rab1210 monoclonal antibody) VH: QEQLEESGGGLVQPEGSLTLTCTASGFSFSSSYWICWVRQAPGKGLELIGYIWSGNGATYYASWAKGRFTISKTSSTTVTLQMTSVTATDTATYFCARNYDASGYGIFHLWGPGTLVTVSS VL: AVVMTQTPASVSAAVGGTVTINCQASQSIVSSYLSWYQQKTGQPPKLLIYSASKLASGVPPRFSGSGSGTQFTLTISGVQCDDAATYYCLYGVDSSNIDNAFGGGTEVVVK | – | – | 0.1 nM | 1 nM | 62% | 0.4 nM | 1.3 nM | 0.7 nM | – |
| Chi1210 (antibody, V domains shown, also called parental rabbit/human Fc chimera of Rab1210) VH: QEQLEESGGGLVQPEGSLTLTCTASGFSFSSSYWICWVRQAPGKGLELIGYIWSGNGATYYASWAKGRFTISKTSSTTVTLQMTSVTATDTATYFCARNYDASGYGIFHLWGPGTLVTVSS VL: AVVMTQTPASVSAAVGGTVTINCQASQSIVSSYLSWYQQKTGQPPKLLIYSASKLASGVPPRFSGSGSGTQFTLTISGVQCDDAATYYCLYGVDSSNIDNAFGGGTEVVVK | – | 2.6 ng/mL | – | – | – | – | – | – | Kd [2]: 1.2 nM; koff [2]: 0.000644 s⁻¹; kon [2]: 538000 M⁻¹ s⁻¹; Inhibition of MCF-7 cancer cell proliferation (IC50, µg/ml) [3]: 0.084 µg/mL; pHER3 inhibition (IC50, µg/ml) [4]: 0.0035 µg/ml |
| Rab46 (antibody, V domains shown, also called Rab46 monoclonal antibody) VH: EEQLVESGGGLVQPEGSLTLTCTASGFSFSASYYIYWVRQAPGKGLEGIAYITGDDDKRTYYANWAKGRFTISKTSTTVTLQMTSLTAADTATYFCTRNLPDELWGPGTLVTVSS VL: QAVVTQTPSSVSAAVGGTVTISCQSSESVYSYKNLAWYQQKPGQPPRLLIWQASRLSSGVSSRFSGSGSGTQFTLTISGVQCDDAATYYCQGTYYSSAWDFVFGGGTEVMVE | – | – | 0.51 nM | 7.3 nM | 39% | 3.8 nM | 6.2 nM | 3.5 nM | – |
| Rab774 (antibody, V domains shown, also called Rab774 monoclonal antibody) VH: QSVEESGGRLVTPGTPLTLTCTVSGIDLSTYAMTWVRRAPGKGLEWLGIINRSSKTYLTDWARGRFTISKTSTTVDLKISSPTTEDTATYFCGRVMSPYSVAGGDLWGPGTLVTVSS VL: QPVLTQSPSASAALGASAKLTCILSSDLSDYTIDWYKHQQGEAPRYLMQLRSDGSYTKGTGVPDRFSGSSSGADRYLVISSVQADDEADYYCGLPYSVEYVFGGGTQLTVT | – | – | 0.52 nM | 0.16 nM | 60% | 2.3 nM | 3.8 nM | 1.8 nM | – |
| Rab189 (antibody, V domains shown, also called Rab189 monoclonal antibody) VH: QESLEESGGDLVKPEGTLTLTCKASGIGFGYYYYICWVRQAPGKGLEWIACIYTGISDSTYYATWAKGRFAISKTSSTTVTLQMTSLTAADTATYFCARSDPYYTTTYTNTYPTYWNLWGPGTLVTVSS VL: CAFELTQTPSSVEAAVGGTVTIKCQASQSINNYLAWYQQKTGQPPKLLIYRASTLESGVPSRFKGSGSGTQFTLTISDLECADAATYYCQSYYYSSSNNYYNAFGGGTEVVVK | – | – | 0.07 nM | 3.6 nM | 55% | 3.6 nM | 5.5 nM | 1.7 nM | – |
| HER3-hMab-A13 (antibody, V domains shown) VH: QVQLVESGGGLVQPGGSLRLSCSASGFSFSSSYWICWVRQAPGKGLEYIGYIWSGNGATYYASWAKGRFTISRDNSKNTVYLQMNSLRAEDTAVYFCARNYDASGYGIFHLWGPGTLVTVSS VL: DIQMTQTPSSLSASVGDRVTINCQASQSIVSSYLSWYQQKPGKPPKLLIYSASKLASGVPSRFSGSGSGTDFTLTISSLQPEDFATYYCLYGVDSSNIDNAFGGGTKVEIK | – | 2.5 ng/mL | – | – | – | – | – | – | – |
| HER3-hMab-A16 (antibody, V domains shown) VH: QVQLVESGGGLVQPGGSLRLSCSASGFSFSSSYWICWVRQAPGKGLELIGYIWSGNGATYYASWAKGRFTISRDTSKNTVYLQMNSLRAEDTAVYFCARNYDASGYGIFHLWGPGTLVTVSS VL: AVQMTQTPSSLSASVGDRVTINCQASQSIVSSYLSWYQQKPGKPPKLLIYSASKLASGVPSRFSGSGSGTDFTLTISSLQPEDFATYYCLYGVDSSNIDNAFGGGTKVEIK | – | 2.3 ng/mL | – | – | – | – | – | – | – |
| HER3-hMab-A14 (antibody, V domains shown) VH: QVQLVESGGGLVQPGGSLRLSCSASGFSFSSSYWICWVRQAPGKGLELIGYIWSGNGATYYASWAKGRFTISRDTSKNTVYLQMNSLRAEDTAVYFCARNYDASGYGIFHLWGPGTLVTVSS VL: DIQMTQTPSSLSASVGDRVTINCQASQSIVSSYLSWYQQKPGKPPKLLIYSASKLASGVPSRFSGSGSGTDFTLTISSLQPEDFATYYCLYGVDSSNIDNAFGGGTKVEIK | – | 1.9 ng/mL | – | – | – | – | – | – | Kd [2]: 0.862 nM; koff [2]: 0.000174 s⁻¹; kon [2]: 201000 M⁻¹ s⁻¹; Inhibition of MCF-7 cancer cell proliferation (IC50, µg/ml) [3]: 0.232 µg/mL; pHER3 inhibition (IC50, µg/ml) [4]: 0.0017 µg/ml |
| HER3-hMab-A15 (antibody, V domains shown) VH: QVQLVESGGGLVQPGGSLRLSCSASGFSFSSSYWICWVRQAPGKGLEYIGYIWSGNGATYYASWAKGRFTISRDNSKNTVYLQMNSLRAEDTAVYFCARNYDASGYGIFHLWGPGTLVTVSS VL: AVQMTQTPSSLSASVGDRVTINCQASQSIVSSYLSWYQQKPGKPPKLLIYSASKLASGVPSRFSGSGSGTDFTLTISSLQPEDFATYYCLYGVDSSNIDNAFGGGTKVEIK | – | 2.4 ng/mL | – | – | – | – | – | – | – |

— patent US20180066066A1 (University of Texas, published 2018)
